Values of other authors in patent US20130251731A1, “Tau Acetylation in the Pathogenesis of Alzheimers Disease and Other Related Tauopathies” (THE TRUSTEES OF THE UNIVERSITY OF PENNSYLVANIA, priority 2012, published 2013).
Read-outs that look alike come from different tables or passages of the source.

System: histones and microtubules

B1: αTAT-1: cytoplasmic α-tubulin acetyltransferase (protein, UniProt Q5SQI0 1-421, looked up)
Alpha-tubulin …: MEFPFDVDALFPERITVLDQHLRPPARRPGTTTPARVDLQQQIMTIIDELGKASAKAQNLSAPITSASRMQSNRHVVYILKDSSARPAGKGAIIGFIKVGYKKLFVLDDREAHNEVEPLCILDFYIHESVQRHGHGRELFQYMLQKERVEPHQLAIDRPSQKLLKFLNKHYNLETTVPQVNNFVIFEGFFAHQHRPPAPSLRATRHSRAAAVDPTPAAPARKLPPKRAEGDIKPYSSSDREFLKVAVEPPWPLNRAPRRATPPAHPPPRSSSLGNSPERGPLRPFVPEQELLRSLRLCPPHPTARLLLAADPGGSPAQRRRTRGTPPGLVAQSCCYSRHGGVNSSSPNTGNQDSKQGEQETKNRSASEEQALSQDGSGEKPMHTAPPQAPAPPAQSWTVGGDILNARFIRNLQERRSTRPW
Kcat (Shida et al., 2010): 0.000617 s⁻¹
Kcat (substrate as listed (H4-21, H3p19, H3, microtubules)): 0.000617 s⁻¹
Km (substrate as listed (H4-21, H3p19, H3, microtubules), read-out: Km [protein]): 1.6 µM
